Reference: the nanobody polyreactivity screen of Harvey et al. (2022)

Test: yeast display, Sf9 membrane polyspecificity reagent, FACS + sequencing; frameworks hold sequencing errors
In short: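 Galactose-induced (36–48 hours) yeast carrying a synthetic nanobody display library were exposed to 10% biotinylated, detergent-solubilized Sf9 membrane reagent at 4 °C for 1 hour. FACS followed streptavidin microbead enrichment, using low and high (top ~1%) gates for expression (anti-HA) and reagent binding (streptavidin). Colony PCR, MiSeq 2 × 250 sequencing and CDR-length filtering followed. Labels for polyreactivity reflect the gate of origin.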

| Sequence | polyreactivity (PSR sort gate) |
| --- | --- |
| QVQLVESGGGLVQAGGSLRLSCAASGSTFWSYTMGGYRQAPGKERELVAAISRSGGSTYYADSVKGRFTISRDNAKNTVYLQKNSLKPEDTAVYYCAASDRYGSRYYYWGQGTQVTVSS | high polyreactivity |
| QVQLVESGGGLVQAGGSLRLSCAASGSTFWVNAMGWYRQAPGKERELVAAITYSGGSTHYADSVKGRFTISRDNAKNTVYLQMNSLKPEDTAVYYCNAEHWADYDYWGQGTQVTVSS | low polyreactivity |
| QVQLVESGGGLVQAGGSLRLSCAASGSTFWVYDMGWYRQAPGKERELVAAISRRGGRTYYADSVKGRFTISRDNAKNTVYLQMNSLKPEDTAVYYCNRRYTQPDTRQWYDYWGQGTQVTVSS | low polyreactivity |
| QVQLVESGGGLVQAGGSLRLSCAASGSTFWVYTKGWYRQAPGKERELVAAITGSTGNTYYADSVKGRFTISRDNPKNTVYFQMNSLKPEDTAVYYCSADSYWSYRYPMGYDNWGQGSQVTVSS | low polyreactivity |
| QVQLVESGGGLVQAGGSLRLSCAASGSTFWWYAMGWYRQAPGKEREFVAAITSTGGSTYYADSVKGRFTISHDNAKNTVYLQMNSLKPEDTAVYYCAVRLYLEMDYWGQGTQVTVSS | high polyreactivity |
| QVQLVESGGGLVQAGGSLRLSCAASGSTFWYAMGWYRQAPGKERELVAAITARGGRTYYADSVKGRFTISRDNAKNTVYLQMNSLKPEDTAVYYCARLSYAGGQWIIGKYDYWGQGTQVTVSS | high polyreactivity |
| QVQLVESGGGLVQAGGSLRLSCAASGSTFWYNTMGWYRQAPGKERELVAAISWSGGSTYADSVKGRFTISRDNAKNTVYLQMNSLKPEDTAVYYCNADDYYRYDYWGLGTQVTVSS | low polyreactivity |
| QVQLVESGGGLVQAGGSLRLSCAASGSTFWYYAMGWSRQAPGKERELVAAIRRGGSTYYADSVKGRFTISRDNAKNTVYLQMNSLKPVDTAVYYCAAERPYKTFGYGYWGQGTQVTVSS | high polyreactivity |
| QVQLVESGGGLVQAGGSLRLSCAASGSTFWYYAMGWYRQAPGKERELVAAITSSGSTYYADSVKGRFTISRDNAKNTVYLQMYSLKPEDTAVYYCAAEQWYGYASYDYWGQGTQVTVSS | high polyreactivity |
| QVQLVESGGGLVQAGGSLRLSCAASGSTFWYYAMGWYRQAPGKERELVAAITSVDSTYYADSVKGRFTISRDNANNTVYLQMNSLKPEDTAVYYCAADLPWEDGYYFYSGYTEYDYWGQGTQVTVSS | low polyreactivity |
| QVQLVESGGGLVQAGGSLRLSCAASGSTFWYYAMGWYRQAPGKERELVASITYSGGSTYYADSVKGRFTISRDNAKNTVYLQMNSLKPEDTAVYYCAAEGYYSNYHFWGQGTQVTVSS | low polyreactivity |
| QVQLVESGGGLVQAGGSLRLSCAASGSTFWYYVMGWYRQAPGKERELVAAISIVGSTYYADSVKGRFTISRDNAKNTVYLQMNSLKPEDTAVYYFNAGYFRGSNAIKVRLTYDHWGQGTQVTVSS | low polyreactivity |
| QVQLVESGGGLVQAGGSLRLSCAASGSTFYANAMGWYRQAPGKERELVAAISRSGGRTYYADSVKGRFTISRDNAKNTVFLQMNSLKPEDTAVYYCAKAYHHSEFDYWGQGTQVTVSS | high polyreactivity |
| QVQLVESGGGLVQAGGSLRLSCAASGSTFYANAMGWYRQAPGKERELVADISFSGASTFYADSVKGRFTISRDNAKNTVYLQMNSLKPEDTAVYYCATDNPSVVGFDYWGQGTQVTVSS | low polyreactivity |
| QVQLVESGGGLVQAGGSLRLSCAASGSTFYANDMGWYRQAPGKERELVASISLGDGSTYYADSVKGRFTISRDNAKNTVYLQMNSLKPEDTAVYYCAAGFYVWYWGFNYWGQGSQVTVSS | low polyreactivity |
| QVQLVESGGGLVQAGGSLRLSCAASGSTFYAYAMGWYRQAPGKERELVAAIDSGGSTYYADSVKGRFTISRDNAKNTVYLQMNSLKPDDTAVYYCAVRHRYTRAYWGRDYWGQGTQVTVSS | low polyreactivity |
| QVQLVESGGGLVQAGGSLRLSCAASGSTFYAYAMGWYRQAPGKERELVAAISSSGGSTYYADSVKGRFTISRDNAKNTVYLQMNSLKPEDTAVYYCAAYDSVQKYWILGFDYWGQGTQVTVSS | low polyreactivity |
| QVQLVESGGGLVQAGGSLRLSCAASGSTFYDYAMGWYRQAPGKERELVAAINWSSDTTYYADSVKGRFTISRDNAKNTVYLQMNSLKPEDTAVYYCATDSAYRGYDYWGQGTQVTVSS | low polyreactivity |
| QVQLVESGGGLVQAGGSLRLSCAASGSTFYDYAMGWYRQAPGKERELVASISISGGSTYADSVKRRFTISRDNAKNTVYLQMNSLKPEDTAVYYCNAKNYSWDDYDWVPDYEYWGQGTQVTVSS | low polyreactivity |
| QVQLVESGGGLVQAGGSLRLSCAASGSTFYDYAMGWYRQAPGKERELVASISSGGGTYYADSVKGRFTISRDNAKNTVYLQMNSLKPEDTAVYYCADDDYSSYVYGTFDRYDYWGQGTQVTLSS | low polyreactivity |
| QVQLVESGGGLVQAGGSLRLSCAASGSTFYDYVMGWYRKAPGKERELVAAITGDGTTDYADSVKGRFTISRDNAKNTVYLQMNSLKPEDTAVYYCNADISLDYDYWGQGTQVTVSS | low polyreactivity |
| QVQLVESGGGLVQAGGSLRLSCAASGSTFYDYVMGWYRQAPGKERELVAAISRTGASTYYADSVKGRFTISRDNAKNTVYLQMNSLKPEDTAVYYCAADSDTVRYYYWGQGTQVTVSS | high polyreactivity |

| Sequence | polyreactivity (PSR sort gate) |
| --- | --- |
| QVQLVESGGGLVQAGGSLRLSCAASGSTFYEKAMGWYRQAPGKEREFVAAITQSGGSTYYADSVKGRFTISRDNAKNTVYLQMNSLKPEDTAVYYCAKVWPKHYRSLGYGYWGQGTQVTVSS | low polyreactivity |
| QVQLVESGGGLVQAGGSLRLSCAASGSTFYEYAMGWYRPAPGKERELVAAISSGGSTYYADSVKGRFTISRDNAKNTVYLQMNSLKPEDTAVYYCNSDCQTYGGEYDYWGQGTQVTVSS | low polyreactivity |
| QVQLVESGGGLVQAGGSLRLSCAASGSTFYEYAMGWYRQAPGKERELVAAIDERGGNTYYADSVKGRFTISRDNAKNTVYLQMNSLKPEVTAVYYCAADAYPFYQSYYPFEYWGQGTQVTVSS | low polyreactivity |
| QVQLVESGGGLVQAGGSLRLSCAASGSTFYFYAKGWYRQAPGRELEWVAAISYSGGSTYYADSVKGRFTISRDNAKNTVYLQMNSLTPEDTAVYSCAADAAFYYDADDEYDYWGQGTQVTVSS | low polyreactivity |
| QVQLVESGGGLVQAGGSLRLSCAASGSTFYFYDMGWYRQAPGKERELVATIDDGGGSTYYADSVKGRFTISRDNAKNTVYLQMNSLKPEDTAVYYCAADYFVYPDDWYDYWGQGTQVTVSS | low polyreactivity |
| QVQLVESGGGLVQAGGSLRLSCAASGSTFYGNAMGWSRQAPGKERELVAAIRWRGGRTYYADSVKGRFTISRDNAKNTVYLQMNSLKPEDTAVYYCNALPGVSHTQYDRVGYWGQGTQVTVSS | high polyreactivity |
| QVQLVESGGGLVQAGGSLRLSCAASGSTFYGNPLGWYRKAPGKERELVAAIRRSGGRTYYADSVKGRFTISRDNAKNTVYLQMNSLKPEDTAVYYCAAAKYSGAYRSTMNYWGQGTQVTVSS | high polyreactivity |
| QVQLVESGGGLVQAGGSLRLSCAASGSTFYGYALGWYRQAPGKERELVAGITSAGSTYYADSVKGRFTISRDNAKNTVYLQMNSLKPEDTAVYYCAAVYRRWIWRERYYYCGQGTQVTVSS | high polyreactivity |
| QVQLVESGGGLVQAGGSLRLSCAASGSTFYGYAMGWYRPAPGKERELVAAITRSGGSTYYADSVKGRFTISRDNAKNTVYLQMNSLKPEDTEVYYCNKYGYKGGVGYDYWGQGTQVTVSS | high polyreactivity |
| QVQLVESGGGLVQAGGSLRLSCAASGSTFYGYAMGWYRQAPGKERELVAAISSSGTRTYYADSVKGRFTISRDNAKNTVYLQMNSLKPEDTAVYYCATDVRVGHIRDYDYWGQGTQVTVSS | high polyreactivity |
| QVQLVESGGGLVQAGGSLRLSCAASGSTFYGYAMGWYRQAPGKERELVASITTRGGRTNYADSVKGRFTISRDNAKNTVYLQMNSLKPEDTAVYYCATYSYVTRYARWGEYDYWGQGTQVTVSS | high polyreactivity |
| QVQLVESGGGLVQAGGSLRLSCAASGSTFYGYAMGWYRQPPGKERELVAAITIGGRTYYADSVKGRFTISRDNAKNTVYLQMNSLKPEDTAVYYCAAAILRTVPELGSRRTYYYWGQGTQVTVSS | high polyreactivity |
| QVQLVESGGGLVQAGGSLRLSCAASGSTFYHNAMGWYRQAPGKERELVAAITSGTSTYYADSVKGRFTISRDNAKNTVYLQMNSLKPEDTAVYDCAADSPWGGGYFVLYNYWGQGTQVTVSS | low polyreactivity |
| QVQLVESGGGLVQAGGSLRLSCAASGSTFYHNVMGWYRQAPGKERELVASIDTGDSTNYADSVKGRFTISRDNAKKTVYLQMNSLKPEDTAVYYCNAVWNTFISGRSYDYWGQGTQVTVSS | low polyreactivity |
| QVQLVESGGGLVQAGGSLRLSCAASGSTFYHYAMGWYRQAPGKERELVASISHSGGRTFYADSVKGRFTISRDNAKNTVYLQMNSLKPEDTAVYYCAADWRTLTEYGYKGYYWGLGTQVTVSS | low polyreactivity |
| QVQLVESGGGLVQAGGSLRLSCAASGSTFYINAMGWSRQAPGKEREFVAAIDWGGGTTYYADSVKGRFTISRDNAMNTVYLQMNRLKPEDTAVYYCAAERNYWSTQYYYWGQGTQVTVSS | high polyreactivity |
| QVQLVESGGGLVQAGGSLRLSCAASGSTFYINAMRWYRPAPGKERELVAAISWSGGSTYYADSVKGRFTISRDNAKNTVYLQMNSLKPEDTAVYYCAADWYLGWSLDYDYWGQGTQVTVSS | low polyreactivity |
| QVQLVESGGGLVQAGGSLRLSCAASGSTFYIYAMGWYIQAPGKERELVAAISTTDGTTYYADSVKGRFTISRDNAKNTVYLQMNSLKPEDTAVYYCAAEWFGSVQPAYDYWGQGTQVTVSS | high polyreactivity |
| QVQLVESGGGLVQAGGSLRLSCAASGSTFYIYAMGWYRPAPGKERELVARISGSGGSTYYADSVKGRFTISRDNAKNTVYLQMNSLKPEDTAVYYCAADDIYKYYQYYAFPYYRYDYWGQGTQVTVSS | low polyreactivity |
| QVQLVESGGGLVQAGGSLRLSCAASGSTFYIYAMGWYRQAPGKDRELVAAISGRGGSTYYADSVKGRFTISRDNAKNTVYLQMNSLKPEDTAVYYCATYSRQDHKYDYWGQGTQVTVSS | high polyreactivity |
| QVQLVESGGGLVQAGGSLRLSCAASGSTFYIYAMGWYRQAPGKERELVAAINSGGGTNYADSVKGRFTISRDNAKNTVYLQMNSLKPEDTAVYYCAKTFYSLYWGQGTQVTVSS | low polyreactivity |
